# Tested on: MS2 coat protein
# Test: apparent KD of MS2 coat protein; higher = weaker reporter binding
# Conditions: Eterna round: R107
# Procedure, shortened: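 The designed RNA switches were transcribed on-chip from Illumina sequencing clusters. In 100 mM Tris-HCl pH 7.5, 80 mM KCl and 4 mM MgCl2, without or with constant ligand, they were titrated with SNAP-549-labelled MS2 coat protein from 0.7 or 1.5 nM to 3 µM in twofold steps. Apparent KD is the per-design median of normalised cluster binding-curve fits.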
# [1] = input ligand: theophylline 20 uM
# [2] = input ligand: theophylline 2 mM
# [3] = input ligand: tryptophan 2.4 mM
Sequence,apparent KD of MS2 coat protein (input ligand: arginine 13.2 mM) [nM],apparent KD of MS2 coat protein (input ligand: none) [nM],apparent KD of MS2 coat protein [1] [nM],apparent KD of MS2 coat protein [2] [nM],apparent KD of MS2 coat protein [3] [nM]
UUGACAUGAGGAUCACCCAUGUAAACUGAAGGAGCGUCGAAAAUGACAGGUAGGUCGCAGAAUAAUAAAGGUGAUGGUAAAUAUU [Exclusion Arginine AGF1],21.4,22.3,34.5,29.6,29.3
UUGGAUAUGCGAAGGAGCGGGAAAUAUAUAUAUAUAAUCCUAACAUGAGGAUCACCCAUGUCCCAGGUAGGUCGCGCAUAUUUGG [12.H],48.1,51.7,69.3,70.7,49.9
UUGGGUUUGUGAAGGAGCGGGAAAGUUUUAUAGUGGAUCCUAACAUGAGGAUCACCCAUGUCCCAGGUAGGUCGCGCGGGUUUGG [12.R],60.7,182,182,152,107
UUGUAUAUGCGAAGGAGCGGGAAAUAUAUAUAUAUAAUCCUAACAUGAGGAUCACCCAUGUCCCAGGUAGGUCGCGCAUAUGUGG [12.G],34.6,58.8,65.6,68.3,54.9
UUUAAAUAGACGGCCGCCACUGGAAUUAAUACAUGAGGAUCACCCAUGUAGAGAGAAUAAUAAUACAGGACCGGGUCUUCAUGAA [SS Tryp B Tesla 1],27.2,–,22.1,38.9,–
UUUACAUGAGGAUCACCCAUGUGCCAUGAUACCAGACAUGAAAAUGUCCCUUGGCAGCAUGAAUAAUCCUCGUCGGGAAACCGAC [Lisen],110,–,195,–,70.8
UUUACAUGAGGAUCACCCAUGUGCCAUGAUACCAGACAUGAAAAUGUCCCUUGGCAGCAUGAGUGAAGCGUCGGGAAACCGACGC [Kninicky],57.1,249,229,297,261
UUUACAUGAGGAUCACCCAUGUGCCAUGAUACCAGACAUGAAAAUGUCCCUUGGCAGCAUGGGUGUAGCGUCGGGAAACCGACGC [Kohoutovice],97.5,35,545,909,14
UUUACCGACACAGAUCACUAAAACCUUGAUACCAGUCCCAGUGGCGACCCUUGGCAGCAAUAUACAUGAGGAUCACCCAUGUGCA [theeternabot_exclusion_MS2_Theo_A_1],13.7,–,–,–,13.8
UUUCUUUUCUUUCUUUCCUUUCAAACCGAAGGAGCGGGAACAAACCCAGGUAGGUCGCGGUGUGACAUGAGGAUCACCCAUGUGU [Exclusion - Arginine],65.5,78,106,85,58.1
UUUGAUAGGACAGAUACCAGCGUGUUGUUGAACAUGAGGAUCACCCAUGUAGUGAUCAAGCGCCCUUGGCAGCUGGUUUGUUAGG [7.M],95.5,–,240,–,302
UUUUAACAUGAGGAUCACCCAUGUAAUGAUACCAGAGACGAAAGUCUCCCUUGGCAGCAUAUAUCAUUACUCAUAGGAAACUAUG [Theophylline A 6],35.4,–,23.5,–,13.6
UUUUCAGGGUCGGCCGCCACUGGUAUGGCGAGUCCUCGAACAAACAUGAGGAUCACCCAUGUGAACAGGACCGGGACAGCAUGGG [Exclusion Tryptophan B GF 21],97.2,380,538,645,286
UUUUUCGCGGGUGAUACCAGCAAAGUUGUACUGGUCUGGUACAUGAGGAUCACCCAUGUUUGCCCUUGGCAGCGCUCGGGAGAAG [#22 Exclusion-TheophyllineB],33.2,21,39.2,32.7,23.5

# — the supplement of paper PMC9170038
